Article PMC5895073, “Cell polarity protein Spa2 coordinates Chs2 incorporation at the division site in budding yeast” (PLoS Genetics, 2018)

Biological target: T1, Strep-tag-Chs2-V377I-215-629 (S. cerevisiae, UniProt P14180 215-629, V377I)
T1 construct: Chs2 (chitin synthase II), S. cerevisiae, residues 215-629 with the hypermorphic change V377I; also called Strep-tag-Chs2-215-629-V377I; source: E. coli Rosetta, in cell extract
T1 sequence (looked up): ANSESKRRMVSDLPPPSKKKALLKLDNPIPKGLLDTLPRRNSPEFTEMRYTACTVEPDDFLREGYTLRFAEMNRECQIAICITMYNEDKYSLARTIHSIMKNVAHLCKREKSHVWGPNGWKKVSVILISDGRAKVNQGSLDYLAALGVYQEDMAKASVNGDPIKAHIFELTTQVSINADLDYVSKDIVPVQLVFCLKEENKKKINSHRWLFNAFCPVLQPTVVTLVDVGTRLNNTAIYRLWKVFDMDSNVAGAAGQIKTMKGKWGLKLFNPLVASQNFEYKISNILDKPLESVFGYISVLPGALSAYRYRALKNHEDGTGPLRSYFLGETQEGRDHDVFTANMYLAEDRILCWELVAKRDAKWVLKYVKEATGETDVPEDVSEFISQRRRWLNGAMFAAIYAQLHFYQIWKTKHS
Assay: pull-down; pairs of E. coli cultures mixed, one cell extract; Strep-tagged protein isolated on Strep-Tactin Superflow resin, eluted with 2.5 mM d-desthiobiotin; immunoblot with anti-Strep and anti-His
Conditions: partners not purified

amount of Inn1 co-purified, fold over that with Strep-tag-Chs2-215-629: ~3 fold
B1: 6His-tagged-Inn1 (natural protein, S. cerevisiae, UniProt P53901 1-409, looked up)
chain: MSEEVWNGNQGILSVYVSKARDLPNLNKLDKQNVMLRLRIAHMTRASNTLHRAGQNPVFHYLEKFDITPEIKPLMYVEVYCDRRKKSPLPIGRCEIDLLNAIRADPKEGYCTWYELKRSGDEFAGTIFIELTFTPKVPRLNRDDLNKEMDRLDSSMAMRPIPPLPTESEYDYVHGSTMRQITPQCVSTSHEDKDEGQPYRNGNVFSMSSKSDTAVLANSNDPIILPPTFSASMGTTSTLETNDTAISNTSNTKFHFANLRKLKEKINIFKNPDSSTNNCQNESNKVDIEALQKAIGVTSLSYDEDDDDDDENDAFYSSSHRVSHNYNQPPLPPIPTRDDMSNYSSSRNTPLVRRDRPSRLDSSSPNSHPHPSGLNSPKLPPLPTTSNSNFNSRKNSMSPTRKRPPPRLS
notes: Inn1, S. cerevisiae; also called 6His-Inn1; source: E. coli Rosetta, in cell extract
